Reference: publication PMC12182672

Target: host plasminogen (Plg), porcine (pig)
Assay: ELISA; microtiter plates coated with 0.8 ug/well Plg in 50 mM carbonate-bicarbonate buffer pH 9.8; His-tagged proteins added at 1 ug/mL; detected with His-tag monoclonal antibody and HRP anti-mouse; OD450

Substance | fold binding activity (OD450) over the negative control rNOD1 [fold]
truncated rMhp390(27-247) (domain or fragment) | 2.56
truncated rMhp390(425-604) (domain or fragment) | 2.68
